Patent US20170115280A1

Tests used:
[1] = target: reconstituted nascent HDL (rHDL) particle made with isolated human apoA-I (human) (UniProt P02647); experiment: SPR (BIAcore 3000), rHDL immobilized on CM5 chip, rPON1 500-2000 nM in flow
[2] = target: reconstituted nascent HDL (rHDL) particle made with isolated human apoA-I (human) (UniProt P02647); experiment: SPR (BIAcore 3000), rHDL immobilized on CM5 chip, apparent Kd, 1:1 binding with drifting baseline
[3] = target: reconstituted nascent HDL (rHDL) particle made with isolated human apoA-I (human) (UniProt P02647); experiment: SPR, rHDL immobilized on CM5 chip

Sequence of reconstituted nascent HDL (rHDL) particle made with isolated human apoA-I (human) (P02647 25-267 limits assumed): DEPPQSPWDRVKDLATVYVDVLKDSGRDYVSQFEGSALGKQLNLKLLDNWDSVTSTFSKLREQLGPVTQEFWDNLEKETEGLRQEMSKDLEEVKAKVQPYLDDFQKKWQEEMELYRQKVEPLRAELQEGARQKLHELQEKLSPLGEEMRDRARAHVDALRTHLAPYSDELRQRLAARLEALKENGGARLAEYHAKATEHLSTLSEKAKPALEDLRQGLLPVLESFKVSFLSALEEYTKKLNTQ

koff [1]	kon [1]	Kd [2]	fold less binding capacity compared with rPON1 WT [3]	Substance
0.05 s⁻¹	850 M⁻¹ s⁻¹	59 µM	–	rPON1 pan E mutant (Leu9→Glu9, Tyr185→Glu185 and Tyr293→Glu293) with C-terminal His8 tag (enzyme)
6e-05 s⁻¹	–	–	1000 fold	rPON1 pan K mutant (Leu9→Lys9, Tyr185→Lys185 and Tyr293→Lys293) with C-terminal His8 tag (enzyme)
8.5e-07 s⁻¹	1200 M⁻¹ s⁻¹	0.00071 µM	–	recombinant paraoxonase 1 (PON1) variant G3C9, His-tagged (rPON1 WT) (enzyme)
